Molecular target: human Cul3 N-terminal domain (NTD, residues M1-L388) with the engineered mutations I342R and L346D (human, UniProt Q13618 1-388, I342R | L346D)
Experiment: ITC

human Cul3 N-terminal domain (NTD, residues M1-L388) with the engineered mutations I342R and L346D, sequence (Q13618 1-388 I342R/L346D): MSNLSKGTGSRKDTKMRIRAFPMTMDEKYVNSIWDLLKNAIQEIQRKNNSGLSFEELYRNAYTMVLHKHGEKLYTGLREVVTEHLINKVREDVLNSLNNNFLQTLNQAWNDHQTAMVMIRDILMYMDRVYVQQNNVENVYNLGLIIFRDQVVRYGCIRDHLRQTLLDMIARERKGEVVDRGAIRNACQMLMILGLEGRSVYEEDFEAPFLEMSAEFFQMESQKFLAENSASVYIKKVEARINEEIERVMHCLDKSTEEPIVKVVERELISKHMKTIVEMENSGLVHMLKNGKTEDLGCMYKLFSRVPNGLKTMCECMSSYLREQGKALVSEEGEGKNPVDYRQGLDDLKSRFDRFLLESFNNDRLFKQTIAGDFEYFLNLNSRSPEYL

Kd: 12 nM
B1: KCTD17 BTB + CTD multi-domain construct (residues G20-Q220), tag cleaved (domain or fragment)
chain: SMGAGGRAAGGWGKWVRLNVGGTVFLTTRQTLCREQKSFLSRLCQGEELQSDRDETGAYLIDRDPTYFGPILNFLRHGKLVLDKDMAEEGVLEEAEFYNIGPLIRIIKDRMEEKDYTVTQVPPKHVYRVLQCQEEELTQMVSTMSDGWRFEQLVNIGSSYNYGSEDQAEFLCVVSKELHSTPNGLSSESSRKTKSTEEQLEEQ

Reference: PMC5664961 (2017)
